{"source": "patent US12459987B2", "about": "“Monoclonal antibodies for prevention and treatment of herpes simplex viral infections” (priority 2019, dated 2025)", "molecules": {"B1": {"name": "33B8: monoclonal antibody from germinal center B cell; IgH SEQ ID NO: 28, IgL SEQ ID NO: 30 (antibody, V domains shown)", "VH": "EVKLVESGGGLVQPGGSLSLSCATSGFTFTDYYMNWVRQPPGKALEWLGFIRNKANGYTTEYSASVKGRFTISRDNSQSILYLQMNSLRAEDSATYYCACGNYVGYAMDYWGQGTSVTVSSA", "VL": "DIVMSQSPSSLAVSAGEKVTMSCKSSQSLLNSRTRKNYLAWYQQKPGQSPKLLIYWASTRESGVPDRFTGSGSGTDFTLTISSVQAEDLAVYYCKQSYNLYTFGGGTKLEIKR", "modifications": "33B8 heavy chain; 33B8 light chain"}}, "key": {"[1]": {"molecular_target": "human herpesvirus glycoprotein B (gB) (Human herpesvirus 2, UniProt P08666)", "assay": "Immunoprecipitation-Mass Spectrometry (IP-MS) target identification", "type": "binding", "experimental": "FIG. 7A-7B. Immunoprecipitation-Mass Spectrometry (IP-MS) was performed to identify the binding targets of 22D10, 33B8, and BMPC-23 antibodies.\nIP-MS was performed to identify the targets of 22D10, 33B8, and BMPC-23 antibodies."}, "[2]": {"system": "HSV-2 G infected cell lysates", "assay": "ELISA binding of recombinant antibodies to HSV-2 G infected cell lysates", "set-up": "species or system HSV-2 G strain", "experimental": "Binding of recombinant antibodies to HSV-2 G lysates was tested by ELISA. Both heavy and light chain V(D)J rearrangements were amplified from selected single B-cell culture wells (22D10, 32H6, 33B8, and 35H7) by standard RT-PCR. These cloned V(D)J rearrangements were introduced into expression vectors. Recombinant antibodies were obtained by co-transfection of these expression vectors into Expi293F cells. ≥4 mg of purified IgGs was obtained (not shown). […]\nBriefly, mice were vaccinated with ΔgD-2 and then 16 days after vaccination, the draining, inguinal lymph nodes were harvested. GC B cells were isolated from these tissues and were cultured in Nojima cultures. Although overall cloning efficiency of GC B cells from these (shipped) tissues was lower than those from freshly isolated tissues (6% vs. 20%), 50 GC clones were obtained that were specific to HSV-2 G strain (HSV-2 G or HSV2-G) lysate. GC B cells from inguinal lymph nodes of mice vaccinated with ΔgD-2 were sorted directly into 96-well plates (1 cell/well). These GC B cells were then cultured in the presence of NB-21.2D9 feeder cells. After culture, presence of IgG was first determined by ELISA, and then the reactivity of culture supernatant IgG against HSV-2 G lysates (HSV-2 G) and uninfected Vero lysates were tested by ELISA.\nBased on the obtained V(D)J sequences from each B-cell culture, paired heavy and light chains were re-expressed (as recombinant mouse IgG1 and IgG2c antibodies) in Expi293F cells (Kuraoka et al. Immunity 2016; DiLillo et al. Nature Medicine 2013). […] As expected, all recombinant antibodies reacted specifically with HSV-2 G lysates (FIG. 3). […] Binding of recombinant antibodies to HSV-2 G lysates was tested by ELISA. Both heavy and light chain V(D)J rearrangements were amplified from selected single B-cell culture wells (22D10, 32H6, 33B8, and 35H7) by standard RT-PCR. These cloned V(D)J rearrangements were introduced into expression vectors. Recombinant antibodies were obtained by co-transfection of these expression vectors into Expi293F cells. ≥4 mg of purified IgGs was obtained (not shown). […] These recombinant antibodies (≥4 mg each) were tested for identification of reacting antigen(s), in an in vitro FcγRIV activation assay (Promega FcγRIV ADCC Reporter Bioassay)(FIG. 4), and in vivo protection assay. […]"}, "[3]": {"system": "uninfected Vero lysate", "assay": "ELISA binding to control uninfected Vero lysate", "experimental": "Binding of recombinant antibodies to HSV-2 G lysates was tested by ELISA. Both heavy and light chain V(D)J rearrangements were amplified from selected single B-cell culture wells (22D10, 32H6, 33B8, and 35H7) by standard RT-PCR. These cloned V(D)J rearrangements were introduced into expression vectors. Recombinant antibodies were obtained by co-transfection of these expression vectors into Expi293F cells. ≥4 mg of purified IgGs was obtained (not shown).\nBased on the obtained V(D)J sequences from each B-cell culture, paired heavy and light chains were re-expressed (as recombinant mouse IgG1 and IgG2c antibodies) in Expi293F cells (Kuraoka et al. Immunity 2016; DiLillo et al. Nature Medicine 2013). […] As expected, all recombinant antibodies reacted specifically with HSV-2 G lysates (FIG. 3). […] Binding of recombinant antibodies to HSV-2 G lysates was tested by ELISA. Both heavy and light chain V(D)J rearrangements were amplified from selected single B-cell culture wells (22D10, 32H6, 33B8, and 35H7) by standard RT-PCR. These cloned V(D)J rearrangements were introduced into expression vectors. Recombinant antibodies were obtained by co-transfection of these expression vectors into Expi293F cells. ≥4 mg of purified IgGs was obtained (not shown). […]"}, "[4]": {"molecular_target": "glycoprotein B of HSV-1 (gB-1) (Human herpesvirus 1, UniProt P10211)", "assay": "Luminex multiplex assay, binding to gB-1", "conditions": "Table 3 summary", "experimental": "FIGS. 9A and 9B are graphs of median fluorescence intensity (MFI) versus IgG concentration (ng/ml), showing the binding of various recombinant antibodies to gB-1 as measured by Luminex multiplex assay.\nBMPC-23 binds HSV-1 gB (gB-1). The gB-1 binding of the antibodies was determined by Luminex multiplex assay. Mixtures of antigen (gB-1)-conjugated microspheres (1,000 counts each) were added to each well of 96-well filter plates (Millipore). After washing with PBS containing 1% BSA, 0.05% Tween 20 and 0.05% NaN3, serially diluted recombinant antibodies (5E7, 19G7, 18G4, 22E10, 3A2, 17G3, 22D10, 32H6, 33B8, 25H7, BMPC-23, and S5V2-29) were added to the plates and incubated for 2 hours at room temperature, with mild agitation of the plates. Samples were diluted in PBS containing 1% cow milk, 1% BSA, 0.05% Tween 20 and 0.05% NaN3. After washing, PE goat anti-mouse IgG was added to the plates and incubated for 1 hour at room temperature with mild agitation. After washing, microspheres were resuspended in PBS containing 1% BSA, 0.05% Tween 20 and 0.05% NaN3 and fluorescent signals from each microsphere were measured in a Bio-Plex® 3D machine.\nFinding gB-1 specific HSV antibodies. After Nojima culture (single B-cell culture), HSV-specific antibodies were cloned from germinal center B cells and tested for binding to HSV-1 gB-1 by Luminex multiplex assay as described above. FIGS. 9A and 9B show the gB-1 binding results for 10 antibodies in comparison with BMPC-23. With the exception of BMPC-23, the antibodies in Table 3 were derived from germinal center B cells (lymph nodes) taken 15-17 days after primary vaccination with ΔgD-2. BMPC-23 was derived from bone marrow plasmacytes taken 2 weeks post-boost with ΔgD-2. Nucleotide sequences and amino acid sequences for the heavy-chains and light chains are shown in Table 4, as are the amino acid sequences for the light chain and heavy chain CDR1, CDR2, and CDR3."}, "[5]": {"system": "HSV-2", "assay": "Passive transfer in vivo protection assay, lethal HSV-2 challenge", "set-up": "species or system mice", "experimental": "Mice were prime-boost immunized with ΔgD-2 and the spleens, draining lymph nodes or bone marrow were isolated. Germinal center (GC) B cells were then cultured on NB-21.2D9 cells (Nojima cultures). After culture, supernatants were screened for the presence of HSV-lysate binding IgG by ELISA. The V(D)J rearrangements amplified from selected GC B-cell cultures for the B-cell antigen receptor (BCR) repertoire analysis in GC B cell clones among individual mice were sequenced. Then, reconstituted antibodies from selected single GC B cell cultures and from single, bone marrow plasmacytes were evaluated for ability to activate the mFcγRIV in vitro and to protect mice in a passive transfer model.\nBoth IgG1 and IgG2c forms of 22D10, 33B8, and BMPC-23 antibodies (≥4 mg each) were assessed for reproducibility of in vivo protection assay, and any dependency on Ig isotype for protection. […] To test roles of Ig isotypes on ability to provide protection, IgG1 and IgG2c isotypes of these three antibodies were generated and assessed for ability to activate mFcγRIV signaling (as a measurement for ADCC), and for in vivo protection assay."}}, "note": "Entries after “also recorded” stand apart in the source; their conditions may differ.", "data": [{"molecule": "B1", "values": [{"measurement": "Binding target identified by IP-MS", "setting": "[1]", "result": "human herpesvirus glycoprotein B (gB)"}, {"measurement": "Binding of recombinant antibodies to HSV-2 G lysates", "setting": "[2]; ELISA, recombinant antibodies expressed in Expi293F cells", "result": "Retention of HSV-2 G lysate-binding"}, {"measurement": "Binding to HSV-lysate", "setting": "[2]; Table 3 summary", "result": "Yes"}, {"measurement": "Binding to control, uninfected Vero lysate", "setting": "[3]", "result": "did not bind"}, {"measurement": "Target antigens", "setting": "[4]", "result": "(not gB)"}, {"measurement": "Mice protected from lethal challenge", "setting": "[5]; IgG2c version, overall results from 2 independent experiments, passive transfer", "result": "4/10"}, {"measurement": "in vivo protection", "setting": "[5]; Table 3 summary", "result": "Yes"}, {"measurement": "Protection against lethal HSV-2 challenge", "setting": "[5]; as IgG2c, passive transfer, overall survival, epithelial and neurological assays", "result": "significant protection; also recorded: provides protection"}]}]}
